According to US20250340643A1 (AstraZeneca / MedImmune, published 2025):
Read-outs that look alike come from different tables or passages of the source.

What was measured:
[1] = target: T1, CTLA4 on the cells of the reporter gene bioassay (human, UniProt P16410 36-223); assay: cell-based or functional assay
T1 sequence (looked up): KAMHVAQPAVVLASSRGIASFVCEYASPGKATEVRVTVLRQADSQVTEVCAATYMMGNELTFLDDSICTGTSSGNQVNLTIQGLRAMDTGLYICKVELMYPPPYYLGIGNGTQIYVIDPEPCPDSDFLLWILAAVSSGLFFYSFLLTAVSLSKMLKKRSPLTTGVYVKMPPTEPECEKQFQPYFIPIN

[2] = target: T1, CTLA4 on the cells of the reporter gene …; assay: cell-based or functional assay; remark: listed apart in the source
[3] = target: T2, recombinant FcRn (UniProt P55899 24-297; P61769 21-119, limits assumed); assay: SPR, recombinant FcRn immobilized on the sensor; relative to Reference Standard
T2 construct: also called Neonatal Fc Receptor
T2 sequence (P55899 24-297 limits assumed, form in doubt, chain 1 of 2): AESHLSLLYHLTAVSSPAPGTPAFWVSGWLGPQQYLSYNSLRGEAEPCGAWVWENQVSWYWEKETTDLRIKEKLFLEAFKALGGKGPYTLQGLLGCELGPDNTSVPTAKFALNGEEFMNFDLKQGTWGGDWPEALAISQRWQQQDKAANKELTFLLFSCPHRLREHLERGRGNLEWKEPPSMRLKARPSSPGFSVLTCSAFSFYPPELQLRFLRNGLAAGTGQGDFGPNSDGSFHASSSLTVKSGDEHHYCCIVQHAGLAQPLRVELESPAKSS
T2 sequence (P61769 21-119 limits assumed, form in doubt, chain 2 of 2): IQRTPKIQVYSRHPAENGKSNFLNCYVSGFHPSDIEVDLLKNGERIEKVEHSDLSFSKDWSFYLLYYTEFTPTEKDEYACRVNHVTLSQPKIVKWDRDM
Text: A surface plasmon resonance binding assay was used to measure FcRn binding. This method is based on the ability of the test sample to bind to recombinant FcRn that has been immobilized on an SPR sensor surface. A reference flow cell was created using the same standard amine coupling procedure without the addition of FcRn.

[4] = target: T1, CTLA4 on the cells of the reporter gene …; assay: cell-based or functional assay; remark: listed apart in the source

Row | Binder | Relative Potency (%) [2] [%] | further results
1 | Tremelimumab, stressed starting material (low pH 2.5-3.0, 45° C., shaking) (antibody, human IgG2, kappa, V domains shown) VH: QVQLVESGGGVVQPGRSLRLSCAASGFTFSSYGMHWVRQAPGKGLEWVAVIWYDGSNKYYADSVKGRFTISRDNSKNTLYLQMNSLRAEDTAVYYCARDPRGATLYYYYYGMDVWGQGTTVTVSS VL: DIQMTQSPSSLSASVGDRVTITCRASQSINSYLDWYQQKPGKAPKLLIYAASSLQSGVPSRFSGSGSGTDFTLTISSLQPEDFATYYCQQYYSTPFTFGPGTKVEIKR | – | Relative Potency (%) [1]: 91%
2 | Heat-stressed Tremelimumab (40° C.), month 0 (oxidation study) (antibody, human IgG2, kappa, V domains shown, oxidation by peptide mapping: Trp-52 1.8%, Met-256 1.3%, Met-362 1.6%, Met-401 1.6%, Met-432 1.2%) VH: QVQLVESGGGVVQPGRSLRLSCAASGFTFSSYGMHWVRQAPGKGLEWVAVIWYDGSNKYYADSVKGRFTISRDNSKNTLYLQMNSLRAEDTAVYYCARDPRGATLYYYYYGMDVWGQGTTVTVSS VL: DIQMTQSPSSLSASVGDRVTITCRASQSINSYLDWYQQKPGKAPKLLIYAASSLQSGVPSRFSGSGSGTDFTLTISSLQPEDFATYYCQQYYSTPFTFGPGTKVEIKR | 100 | –
3 | Heat-stressed Tremelimumab (40° C.), month 2 (oxidation study) (antibody, human IgG2, kappa, V domains shown, oxidation by peptide mapping: Trp-52 2.5%, Met-256 2.0%, Met-362 2.6%, Met-401 3.8%, Met-432 2.2%) VH: QVQLVESGGGVVQPGRSLRLSCAASGFTFSSYGMHWVRQAPGKGLEWVAVIWYDGSNKYYADSVKGRFTISRDNSKNTLYLQMNSLRAEDTAVYYCARDPRGATLYYYYYGMDVWGQGTTVTVSS VL: DIQMTQSPSSLSASVGDRVTITCRASQSINSYLDWYQQKPGKAPKLLIYAASSLQSGVPSRFSGSGSGTDFTLTISSLQPEDFATYYCQQYYSTPFTFGPGTKVEIKR | 101 | –
4 | Heat-stressed Tremelimumab (40° C.), month 1 (oxidation study) (antibody, human IgG2, kappa, V domains shown, oxidation by peptide mapping: Trp-52 1.6%, Met-256 1.4%, Met-362 2.1%, Met-401 2.4%, Met-432 1.5%) VH: QVQLVESGGGVVQPGRSLRLSCAASGFTFSSYGMHWVRQAPGKGLEWVAVIWYDGSNKYYADSVKGRFTISRDNSKNTLYLQMNSLRAEDTAVYYCARDPRGATLYYYYYGMDVWGQGTTVTVSS VL: DIQMTQSPSSLSASVGDRVTITCRASQSINSYLDWYQQKPGKAPKLLIYAASSLQSGVPSRFSGSGSGTDFTLTISSLQPEDFATYYCQQYYSTPFTFGPGTKVEIKR | 112 | –
5 | Heat-stressed Tremelimumab (40° C.), month 3 (oxidation study) (antibody, human IgG2, kappa, V domains shown, oxidation by peptide mapping: Trp-52 4.5%, Met-256 2.5%, Met-362 3.1%, Met-401 4.3%, Met-432 2.7%) VH: QVQLVESGGGVVQPGRSLRLSCAASGFTFSSYGMHWVRQAPGKGLEWVAVIWYDGSNKYYADSVKGRFTISRDNSKNTLYLQMNSLRAEDTAVYYCARDPRGATLYYYYYGMDVWGQGTTVTVSS VL: DIQMTQSPSSLSASVGDRVTITCRASQSINSYLDWYQQKPGKAPKLLIYAASSLQSGVPSRFSGSGSGTDFTLTISSLQPEDFATYYCQQYYSTPFTFGPGTKVEIKR | 98 | –
6 | Tremelimumab incubated with 100 ppm H2O2 for 3 days (antibody, human IgG2, kappa, oxidation by peptide mapping: Met-256 68.5%, Met-362 26.5%, Met-401 55.2%, Met-432 42.1%) heavy: QVQLVESGGGVVQPGRSLRLSCAASGFTFSSYGMHWVRQAPGKGLEWVAVIWYDGSNKYYADSVKGRFTISRDNSKNTLYLQMNSLRAEDTAVYYCARDPRGATLYYYYYGMDVWGQGTTVTVSSASTKGPSVFPLAPCSRSTSESTAALGCLVKDYFPEPVTVSWNSGALTSGVHTFPAVLQSSGLYSLSSVVTVPSSNFGTQTYTCNVDHKPSNTKVDKTVERKCCVECPPCPAPPVAGPSVFLFPPKPKDTLMISRTPEVTCVVVDVSHEDPEVQFNWYVDGVEVHNAKTKPREEQFNSTFRVVSVLTVVHQDWLNGKEYKCKVSNKGLPAPIEKTISKTKGQPREPQVYTLPPSREEMTKNQVSLTCLVKGFYPSDIAVEWESNGQPENNYKTTPPMLDSDGSFFLYSKLTVDKSRWQQGNVFSCSVMHEALHNHYTQKSLSLSPGK light: not shown | – | Relative FcRn Binding (%) [3]: 28%; Relative Potency (%) [4]: 83%
